Assay results taken from article PMC10907715, “Soluble Frizzled-related proteins promote exosome-mediated Wnt re-secretion” (Communications Biology, 2024).

Tests used:
FLAG-mClover-mouse Wnt5a = target: T1, FLAG-mClover-mouse Wnt5a (mouse, UniProt P22725 62-380); assay: AUC; AUC-FDS (fluorescence detection) of the culture supernatant of fluorescent Wnt-expressing cells co-cultured with sFRP-expressing or parental HEK293 cells; FluoroBrite DMEM with 8% FBS, no detergent; 20 °C, 42,000 rpm; c(s) model of SEDFIT; conditions: partners not purified
T1 construct: Wnt5a, mouse; secreted into the culture supernatant; Ends of the tags are read from the order of the printed name; also called mClover-Wnt5a; mClover-tagged Wnt5a; source: HEK293 cells stably expressing it (CMV promoter), secreted into the culture supernatant (not purified); not shown: mClover, N-terminal, kept
T1 sequence (looked up): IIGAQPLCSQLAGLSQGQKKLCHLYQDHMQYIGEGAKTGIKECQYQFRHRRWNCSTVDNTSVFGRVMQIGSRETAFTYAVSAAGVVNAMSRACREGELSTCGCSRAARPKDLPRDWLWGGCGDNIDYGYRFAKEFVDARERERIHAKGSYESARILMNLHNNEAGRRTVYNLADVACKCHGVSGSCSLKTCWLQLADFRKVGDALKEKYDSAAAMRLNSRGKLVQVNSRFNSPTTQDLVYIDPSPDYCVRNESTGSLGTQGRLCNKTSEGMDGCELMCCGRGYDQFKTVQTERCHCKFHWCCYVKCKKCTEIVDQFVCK

[1] = target: T2, FLAG-GFP-tagged mouse Wnt3a (mouse, UniProt P27467 19-352); assay: as above; conditions: partners not purified
T2 construct: Wnt3a, mouse; secreted into the culture supernatant; Ends of the tags are read from the order of the printed name; also called GFP-Wnt3a; FLAG-GFP-Wnt3a; source: L cells stably expressing it, secreted into the culture supernatant (not purified); not shown: GFP, N-terminal, kept
T2 sequence (P27467 19-352): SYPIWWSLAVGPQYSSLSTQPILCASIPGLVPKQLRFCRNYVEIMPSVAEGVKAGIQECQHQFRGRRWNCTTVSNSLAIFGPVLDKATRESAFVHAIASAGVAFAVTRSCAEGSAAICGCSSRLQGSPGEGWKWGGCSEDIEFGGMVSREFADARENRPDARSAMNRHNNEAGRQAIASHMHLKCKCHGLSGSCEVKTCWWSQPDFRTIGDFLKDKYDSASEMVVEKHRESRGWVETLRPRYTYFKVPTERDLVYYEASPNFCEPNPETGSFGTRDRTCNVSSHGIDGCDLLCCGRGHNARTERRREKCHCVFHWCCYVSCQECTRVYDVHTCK

stoichiometry N (FLAG-mClover-mouse Wnt5a): 1
stoichiometry N [1]: 1
B1: mouse sFRP2-FLAG (natural protein, UniProt P97299 25-295, looked up)
chain: LFLFGQPDFSYKRSNCKPIPANLQLCHGIEYQNMRLPNLLGHETMKEVLEQAGAWIPLVMKQCHPDTKKFLCSLFAPVCLDDLDETIQPCHSLCVQVKDRCAPVMSAFGFPWPDMLECDRFPQDNDLCIPLASSDHLLPATEEAPKVCEACKTKNEDDNDIMETLCKNDFALKIKVKEITYINRDTKIILETKSKTIYKLNGVSERDLKKSVLWLKDSLQCTCEEMNDINAPYLVMGQKQGGELVITSVKRWQKGQREFKRISRSIRKLQC
notes: sFRP2 (secreted Frizzled-related protein 2), mouse; secreted into the culture supernatant; End of the tag is read from the order of the printed name; also called secreted Frizzled-related protein 2; source: HEK293 cells stably expressing it, secreted into the culture supernatant (not purified)
